Target: Pea2p-L409-ProA (pea2-M409L; S288C-encoded Pea2p variant in the Σ1278b background) (S. cerevisiae (S288C allele recreated in strain Σ1278b)) (UniProt P40091)
Assay: co-IP; IgG pull-down with Pea2p-ProA as bait from lysates of Σ1278b cells; HA-Spa2p from a copper-inducible plasmid; lysis buffer 50 mM Tris-HCl pH 7.5, 150 mM NaCl, 2 mM EDTA, 0.5% Triton X-100; 2 hr at 4°C; Western blot (anti-HA, anti-Protein A); levels normalized against total cell lysate

HA-Spa2p, sequence (P23201 whole entry): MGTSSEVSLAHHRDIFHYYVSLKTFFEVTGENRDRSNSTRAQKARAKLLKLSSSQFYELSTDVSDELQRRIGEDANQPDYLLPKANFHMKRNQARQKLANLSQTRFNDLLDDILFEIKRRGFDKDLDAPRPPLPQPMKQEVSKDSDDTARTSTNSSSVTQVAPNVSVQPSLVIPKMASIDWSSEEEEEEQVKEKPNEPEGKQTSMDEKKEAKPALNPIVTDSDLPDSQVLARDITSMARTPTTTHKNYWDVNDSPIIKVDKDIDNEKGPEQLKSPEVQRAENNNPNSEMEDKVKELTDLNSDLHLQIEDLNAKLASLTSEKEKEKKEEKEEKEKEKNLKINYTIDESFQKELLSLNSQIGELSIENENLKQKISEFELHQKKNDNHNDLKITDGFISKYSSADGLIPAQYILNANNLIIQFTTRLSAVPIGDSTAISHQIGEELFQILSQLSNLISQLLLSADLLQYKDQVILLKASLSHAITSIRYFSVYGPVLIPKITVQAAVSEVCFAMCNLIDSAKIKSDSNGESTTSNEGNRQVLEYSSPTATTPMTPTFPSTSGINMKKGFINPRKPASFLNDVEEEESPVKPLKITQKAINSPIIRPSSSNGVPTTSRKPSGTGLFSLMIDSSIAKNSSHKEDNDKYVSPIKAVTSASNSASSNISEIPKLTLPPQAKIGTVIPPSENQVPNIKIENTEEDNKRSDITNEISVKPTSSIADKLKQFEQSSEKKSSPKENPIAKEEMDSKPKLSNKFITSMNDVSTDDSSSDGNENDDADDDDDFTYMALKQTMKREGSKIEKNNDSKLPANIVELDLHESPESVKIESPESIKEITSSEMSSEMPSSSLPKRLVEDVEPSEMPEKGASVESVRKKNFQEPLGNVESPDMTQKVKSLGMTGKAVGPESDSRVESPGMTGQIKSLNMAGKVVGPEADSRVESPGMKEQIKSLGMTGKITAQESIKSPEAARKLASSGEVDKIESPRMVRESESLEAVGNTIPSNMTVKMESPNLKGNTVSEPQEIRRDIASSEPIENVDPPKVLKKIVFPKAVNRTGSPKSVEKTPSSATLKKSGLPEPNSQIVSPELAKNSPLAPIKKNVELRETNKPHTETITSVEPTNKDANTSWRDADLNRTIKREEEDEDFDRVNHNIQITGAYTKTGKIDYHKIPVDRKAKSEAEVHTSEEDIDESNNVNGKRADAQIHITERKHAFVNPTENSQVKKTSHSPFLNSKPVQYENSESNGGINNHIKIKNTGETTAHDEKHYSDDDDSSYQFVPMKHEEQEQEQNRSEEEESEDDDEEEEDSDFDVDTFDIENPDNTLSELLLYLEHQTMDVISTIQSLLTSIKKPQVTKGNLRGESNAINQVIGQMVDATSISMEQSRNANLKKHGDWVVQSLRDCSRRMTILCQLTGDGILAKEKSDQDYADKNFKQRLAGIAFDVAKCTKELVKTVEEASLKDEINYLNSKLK
UniProt P40091, sequence (P40091 whole entry, stated change not applied): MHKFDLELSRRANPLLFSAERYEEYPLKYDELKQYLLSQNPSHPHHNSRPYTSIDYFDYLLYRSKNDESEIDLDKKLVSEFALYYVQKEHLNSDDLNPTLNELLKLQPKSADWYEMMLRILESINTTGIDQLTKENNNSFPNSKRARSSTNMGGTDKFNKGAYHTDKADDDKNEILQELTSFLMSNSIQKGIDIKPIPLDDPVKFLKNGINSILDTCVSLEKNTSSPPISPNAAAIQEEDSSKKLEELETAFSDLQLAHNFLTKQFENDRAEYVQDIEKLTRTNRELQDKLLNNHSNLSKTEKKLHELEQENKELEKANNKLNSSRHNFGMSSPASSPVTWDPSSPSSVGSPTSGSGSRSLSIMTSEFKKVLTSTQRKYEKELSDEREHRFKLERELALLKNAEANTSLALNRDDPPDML

“HA-Spa2p (from UniProt P23201 1-1466) (natural protein)” gave an amount of Spa2p recovered relative to Pea2p-M409 of 60%.

From PMC4140661
